Results from patent US20210181204A1 (SYNGENTA PARTICIPATIONS, published 2021).

Experiments:
[1] = biological target: Cry1Aa insecticidal protein (Bacillus thuringiensis subsp. aizawai, UniProt P0A367 12-1176); test: direct ELISA, coated protein, SA-AP, 405 nm
[2] = biological target: T1, mCry3A insecticidal protein (Bacillus thuringiensis subsp. …, UniProt P0A379 48-644, limits assumed); test: direct ELISA, coated protein, SA-AP, 405 nm
T1 construct: also called modified Cry3A
T1 sequence: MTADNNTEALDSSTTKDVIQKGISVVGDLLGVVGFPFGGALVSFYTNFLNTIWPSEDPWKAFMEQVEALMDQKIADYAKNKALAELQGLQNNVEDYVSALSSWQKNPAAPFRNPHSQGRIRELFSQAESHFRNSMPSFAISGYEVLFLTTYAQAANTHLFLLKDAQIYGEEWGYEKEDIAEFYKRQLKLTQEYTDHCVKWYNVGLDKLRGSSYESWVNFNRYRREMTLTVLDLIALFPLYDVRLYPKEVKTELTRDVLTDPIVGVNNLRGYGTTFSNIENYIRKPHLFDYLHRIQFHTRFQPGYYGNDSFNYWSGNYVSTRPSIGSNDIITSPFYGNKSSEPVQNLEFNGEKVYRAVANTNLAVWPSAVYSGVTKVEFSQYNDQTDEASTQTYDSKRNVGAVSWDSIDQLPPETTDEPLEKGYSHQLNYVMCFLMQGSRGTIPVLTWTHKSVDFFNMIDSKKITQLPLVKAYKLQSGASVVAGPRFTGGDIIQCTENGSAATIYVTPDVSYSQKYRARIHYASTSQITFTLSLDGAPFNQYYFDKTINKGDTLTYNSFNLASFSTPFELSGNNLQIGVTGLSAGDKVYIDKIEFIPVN

[3] = biological target: T2, Cry1Ab insecticidal protein (Bacillus thuringiensis, UniProt P0A370 1-615); test: direct ELISA, coated protein, SA-AP, 405 nm
[4] = biological target: Cry1Ab.1Ca insecticidal protein; test: direct ELISA, coated protein, SA-AP, 405 nm
[5] = biological target: eCry3.1Ab hybrid insecticidal protein; test: direct ELISA, coated protein, SA-AP, 405 nm
[6] = biological target: Cry1Ai insecticidal protein; test: direct ELISA, coated protein, SA-AP, 405 nm
[7] = biological target: T2, Cry1Ab insecticidal protein; test: direct ELISA: Cry1Ab coated at 1 ug/ml, RGS-His HRP detection
[8] = biological target: T1, mCry3A insecticidal protein; test: direct ELISA: mCry3A coated at 1 ug/ml, RGS-His HRP detection
[9] = biological target: eCry3.1Ab hybrid insecticidal protein; test: direct ELISA: eCry3.1Ab coated at 1 ug/ml, RGS-His HRP detection

Row | Binder | Binding (OD 450 nm) [7] [OD 450 nm] | Binding (OD 450 nm) [9] [OD 450 nm] | also measured
1 | synNAPS-1tag ligand (designed binder, in vivo biotinylation (E. coli BirA strain) on the C-terminal avidin-tag, also called tagged synNAPS 1) MRGSHHHHHHGSVKVKFGPWGEEKEVDTSKIVDVWRWGKYVDFFYDDNGKVGIGSVTEKDAPKELLDMLARAEREKKLGSGLNDIFEAQKIEWH | – | – | binding result [1]: no binding (tested: 10 nM); binding result [2]: no binding (tested: 10 nM); binding result [3]: no binding (tested: 10 nM); binding result [4]: no binding (tested: 10 nM); binding result [5]: no binding (tested: 10 nM); binding result [6]: no binding (tested: 10 nM)
2 | synNAPS2 variant K7A (designed binder) RGSHHHHHHGSMVKVKFAYKGEEKEVDTSKIVWIGRFGKSVYFRYDDNGKTGAGRVYEKDAPKELLDMLARAEREKK | 4 | – | –
3 | synNAPS2 variant Y8A (designed binder) RGSHHHHHHGSMVKVKFKAKGEEKEVDTSKIVWIGRFGKSVYFRYDDNGKTGAGRVYEKDAPKELLDMLARAEREKK | 2.4 | – | –
4 | synNAPS2 variant R33A (designed binder) RGSHHHHHHGSMVKVKFKYKGEEKEVDTSKIVWIGRFGKSVYFAYDDNGKTGAGRVYEKDAPKELLDMLARAEREKK | 2.2 | – | –
5 | synNAPS2 variant K9A (designed binder) RGSHHHHHHGSMVKVKFKYAGEEKEVDTSKIVWIGRFGKSVYFRYDDNGKTGAGRVYEKDAPKELLDMLARAEREKK | 4 | – | –
6 | synNAPS2 variant Y46A (designed binder) RGSHHHHHHGSMVKVKFKYKGEEKEVDTSKIVWIGRFGKSVYFRYDDNGKTGAGRVAEKDAPKELLDMLARAEREKK | 3.5 | – | –
7 | synNAPS2 variant G24A (designed binder) RGSHHHHHHGSMVKVKFKYKGEEKEVDTSKIVWIARFGKSVYFRYDDNGKTGAGRVYEKDAPKELLDMLARAEREKK | 4 | – | –
8 | synNAPS2 variant I23A (designed binder) RGSHHHHHHGSMVKVKFKYKGEEKEVDTSKIVWAGRFGKSVYFRYDDNGKTGAGRVYEKDAPKELLDMLARAEREKK | 3.2 | – | –
9 | synNAPS2 variant T40A (designed binder) RGSHHHHHHGSMVKVKFKYKGEEKEVDTSKIVWIGRFGKSVYFRYDDNGKAGAGRVYEKDAPKELLDMLARAEREKK | 4 | – | –
10 | synNAPS2 variant V21A (designed binder) RGSHHHHHHGSMVKVKFKYKGEEKEVDTSKIAWIGRFGKSVYFRYDDNGKTGAGRVYEKDAPKELLDMLARAEREKK | 3.8 | – | –
11 | synNAPS2 variant F26A (designed binder) RGSHHHHHHGSMVKVKFKYKGEEKEVDTSKIVWIGRAGKSVYFRYDDNGKTGAGRVYEKDAPKELLDMLARAEREKK | 3.7 | – | –
12 | synNAPS-9 ligand (designed binder) MVKVKFAQGGEEKEVDTSKIYRVPRHGKIVFFMYDDNGKGGFGHVTEKDAPKELLDMLARAEREKK | – | – | Binding (OD 450 nm) [8]: 2.5 OD 450 nm
13 | synNAPS-10tag ligand (designed binder, in vivo biotinylation (E. coli BirA strain) on the C-terminal avidin-tag, also called tagged synNAPS 10) MRGSHHHHHHGSVKVKFLMKGEEKEVDTSKIKWVNRHGKYVAFYYDDNGKTGGGEVREKDAPKELLDMLARAEREKKLGSGLNDIFEAQKIEWH | – | – | binding result [1]: no binding (tested: 10 nM); binding result [2]: no binding (tested: 10 nM); binding result [3]: no binding (tested: 10 nM); binding result [4]: no binding (tested: 10 nM); binding result [5]: no binding (tested: 10 nM); binding result [6]: no binding (tested: 10 nM)
14 | synNAPS-2 ligand (designed binder) MVKVKFKYKGEEKEVDTSKIVWIGRFGKSVYFRYDDNGKTGAGRVYEKDAPKELLDMLARAEREKK | 4 | – | –
15 | synNAPS9 variant F31A (designed binder) RGSHHHHHHGSMVKVKFAQGGEEKEVDTSKIYRVPRHGKIVAFMYDDNGKGGFGHVTEKDAPKELLDMLARAEREKK | – | – | Binding (OD 450 nm) [8]: 1.4 OD 450 nm
16 | synNAPS9 variant R22A (designed binder) RGSHHHHHHGSMVKVKFAQGGEEKEVDTSKIYAVPRHGKIVFFMYDDNGKGGFGHVTEKDAPKELLDMLARAEREKK | – | – | Binding (OD 450 nm) [8]: 1 OD 450 nm

Row | Binder | Binding (OD 450 nm) [7] [OD 450 nm] | Binding (OD 450 nm) [9] [OD 450 nm] | also measured
17 | synNAPS9 variant G9A (designed binder) RGSHHHHHHGSMVKVKFAQAGEEKEVDTSKIYRVPRHGKIVFFMYDDNGKGGFGHVTEKDAPKELLDMLARAEREKK | – | – | Binding (OD 450 nm) [8]: 1.5 OD 450 nm
18 | synNAPS9 variant H26A (designed binder) RGSHHHHHHGSMVKVKFAQGGEEKEVDTSKIYRVPRAGKIVFFMYDDNGKGGFGHVTEKDAPKELLDMLARAEREKK | – | – | Binding (OD 450 nm) [8]: 1.8 OD 450 nm
19 | synNAPS9 variant G40A (designed binder) RGSHHHHHHGSMVKVKFAQGGEEKEVDTSKIYRVPRHGKIVFFMYDDNGKAGFGHVTEKDAPKELLDMLARAEREKK | – | – | Binding (OD 450 nm) [8]: 1.7 OD 450 nm
20 | synNAPS9 variant Y21A (designed binder) RGSHHHHHHGSMVKVKFAQGGEEKEVDTSKIARVPRHGKIVFFMYDDNGKGGFGHVTEKDAPKELLDMLARAEREKK | – | – | Binding (OD 450 nm) [8]: 1.8 OD 450 nm
21 | synNAPS9 variant P24A (designed binder) RGSHHHHHHGSMVKVKFAQGGEEKEVDTSKIYRVARHGKIVFFMYDDNGKGGFGHVTEKDAPKELLDMLARAEREKK | – | – | Binding (OD 450 nm) [8]: 0.5 OD 450 nm
22 | synNAPS9 variant F42A (designed binder) RGSHHHHHHGSMVKVKFAQGGEEKEVDTSKIYRVPRHGKIVFFMYDDNGKGGAGHVTEKDAPKELLDMLARAEREKK | – | – | Binding (OD 450 nm) [8]: 0.2 OD 450 nm
23 | synNAPS13 variant K7A (designed binder) RGSHHHHHHGSMVKVKFARWGEEKEVDTSKILHVLRVGKYVRFSYDDNGKLGAGYVTEKDAPKELLDMLARAEREKK | – | 3 | –
24 | synNAPS13 variant L40A (designed binder) RGSHHHHHHGSMVKVKFKRWGEEKEVDTSKILHVLRVGKYVRFSYDDNGKAGAGYVTEKDAPKELLDMLARAEREKK | – | 0.5 | –
25 | synNAPS13 variant L24A (designed binder) RGSHHHHHHGSMVKVKFKRWGEEKEVDTSKILHVARVGKYVRFSYDDNGKLGAGYVTEKDAPKELLDMLARAEREKK | – | 1.1 | –
26 | synNAPS13 variant L21A (designed binder) RGSHHHHHHGSMVKVKFKRWGEEKEVDTSKIAHVLRVGKYVRFSYDDNGKLGAGYVTEKDAPKELLDMLARAEREKK | – | 1.8 | –
27 | synNAPS13 variant T46A (designed binder) RGSHHHHHHGSMVKVKFKRWGEEKEVDTSKILHVLRVGKYVRFSYDDNGKLGAGYVAEKDAPKELLDMLARAEREKK | – | 4.1 | –
28 | synNAPS13 variant Y29A (designed binder) RGSHHHHHHGSMVKVKFKRWGEEKEVDTSKILHVLRVGKAVRFSYDDNGKLGAGYVTEKDAPKELLDMLARAEREKK | – | 2.6 | –
29 | synNAPS13 variant W9A (designed binder) RGSHHHHHHGSMVKVKFKRAGEEKEVDTSKILHVLRVGKYVRFSYDDNGKLGAGYVTEKDAPKELLDMLARAEREKK | – | 1 | –
30 | synNAPS13 variant V26A (designed binder) RGSHHHHHHGSMVKVKFKRWGEEKEVDTSKILHVLRAGKYVRFSYDDNGKLGAGYVTEKDAPKELLDMLARAEREKK | – | 1.8 | –
31 | synNAPS13 variant S33A (designed binder) RGSHHHHHHGSMVKVKFKRWGEEKEVDTSKILHVLRVGKYVRFAYDDNGKLGAGYVTEKDAPKELLDMLARAEREKK | – | 4.1 | –
32 | synNAPS13 variant R8A (designed binder) RGSHHHHHHGSMVKVKFKAWGEEKEVDTSKILHVLRVGKYVRFSYDDNGKLGAGYVTEKDAPKELLDMLARAEREKK | – | 2.4 | –
